Source: US20170306031A1 (NGM BIOPHARMACEUTICALS, published 2017)
Numbering of substitutions follows the chain as printed.

T1: human GFRAL expressed on cells (human, UniProt Q6UXV0 20-394)
T1 sequence: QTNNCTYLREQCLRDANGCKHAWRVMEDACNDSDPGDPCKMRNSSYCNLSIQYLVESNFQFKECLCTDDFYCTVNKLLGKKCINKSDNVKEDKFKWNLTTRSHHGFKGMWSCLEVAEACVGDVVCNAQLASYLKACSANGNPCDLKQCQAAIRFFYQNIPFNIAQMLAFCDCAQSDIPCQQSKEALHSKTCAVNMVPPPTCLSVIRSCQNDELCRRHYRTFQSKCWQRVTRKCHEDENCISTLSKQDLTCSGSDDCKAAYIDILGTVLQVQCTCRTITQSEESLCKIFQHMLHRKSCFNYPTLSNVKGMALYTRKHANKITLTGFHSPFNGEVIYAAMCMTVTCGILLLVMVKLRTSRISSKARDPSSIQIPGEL

T2: mouse GFRAL expressed on cells (mouse, UniProt Q6SJE0 20-393)
T2 sequence: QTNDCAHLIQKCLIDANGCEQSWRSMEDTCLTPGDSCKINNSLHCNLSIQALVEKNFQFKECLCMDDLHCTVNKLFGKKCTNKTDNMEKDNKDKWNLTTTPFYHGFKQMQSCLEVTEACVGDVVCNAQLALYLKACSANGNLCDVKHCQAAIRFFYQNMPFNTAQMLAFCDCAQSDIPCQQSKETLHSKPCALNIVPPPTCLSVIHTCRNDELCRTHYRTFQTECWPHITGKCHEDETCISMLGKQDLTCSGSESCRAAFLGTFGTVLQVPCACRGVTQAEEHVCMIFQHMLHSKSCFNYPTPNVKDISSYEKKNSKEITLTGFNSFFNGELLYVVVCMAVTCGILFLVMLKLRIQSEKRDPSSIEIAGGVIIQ

T3: GFRα1 (UniProt P56159 25-429, limits assumed)
T3 construct: also called GNFR alpha 1; receptor GFRα1
T3 sequence (looked up): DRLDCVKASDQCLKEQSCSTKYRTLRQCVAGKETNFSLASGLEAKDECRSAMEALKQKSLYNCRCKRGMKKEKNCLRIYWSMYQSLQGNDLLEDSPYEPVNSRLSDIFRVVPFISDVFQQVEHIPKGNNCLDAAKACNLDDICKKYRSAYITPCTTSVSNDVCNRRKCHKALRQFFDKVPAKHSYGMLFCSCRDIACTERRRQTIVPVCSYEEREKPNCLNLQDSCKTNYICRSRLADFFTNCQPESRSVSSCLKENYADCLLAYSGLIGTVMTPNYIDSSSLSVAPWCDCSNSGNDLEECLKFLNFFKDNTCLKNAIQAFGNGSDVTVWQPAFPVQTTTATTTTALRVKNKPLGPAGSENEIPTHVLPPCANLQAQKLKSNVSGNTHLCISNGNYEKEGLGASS

T4: human GFRAL (analyte in Biacore assays) (human, UniProt Q6UXV0 19-351, limits assumed)
T4 construct: injected in solution over captured antibody; also called hGFRAL
T4 sequence: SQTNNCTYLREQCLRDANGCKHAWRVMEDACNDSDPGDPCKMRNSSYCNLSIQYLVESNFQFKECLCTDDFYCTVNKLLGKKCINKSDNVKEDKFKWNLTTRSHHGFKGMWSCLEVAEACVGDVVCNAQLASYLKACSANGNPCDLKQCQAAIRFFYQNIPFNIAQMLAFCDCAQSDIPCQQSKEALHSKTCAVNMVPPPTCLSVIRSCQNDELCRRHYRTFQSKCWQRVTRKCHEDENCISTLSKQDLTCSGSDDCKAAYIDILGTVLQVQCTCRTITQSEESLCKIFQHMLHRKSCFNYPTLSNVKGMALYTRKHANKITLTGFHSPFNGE

T5: mouse GFRAL (analyte in Biacore assays) (mouse, UniProt Q6SJE0 20-349, limits assumed)
T5 construct: injected in solution over captured antibody
T5 sequence: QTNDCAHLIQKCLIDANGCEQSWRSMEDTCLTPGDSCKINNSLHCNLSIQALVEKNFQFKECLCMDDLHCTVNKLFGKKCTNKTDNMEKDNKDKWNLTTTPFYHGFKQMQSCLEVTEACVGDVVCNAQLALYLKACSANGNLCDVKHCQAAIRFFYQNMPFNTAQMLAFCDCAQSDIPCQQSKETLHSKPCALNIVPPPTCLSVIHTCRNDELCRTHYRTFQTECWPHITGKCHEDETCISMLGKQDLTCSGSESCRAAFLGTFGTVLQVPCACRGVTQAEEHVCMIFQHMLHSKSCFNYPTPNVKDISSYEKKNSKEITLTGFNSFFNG

B1: antibody designated 5F12 (antibody, V domains shown)
VH: QVQLKQSGTELVRPGASVKLSCKASGYTFTDYYINWVKQRPGQGLEWIARIYPGNGNTYHNEKFKGKATLTAEKSSSTAYMQLSSLTSEDSAVYFCAREGLYYDYDRYFDYWGQGTALTVSS
VL: NIVLTQSPASLAVSLGQRATISCRASESVDTYGNSFMHWYQQKPGQPPKLLIYLASNLESGVPARFSGSGSRTDFTLTIDPVEADDAATYYCHQNNEDPPAFGGGTKLEIK
notes: mouse hybridoma monoclonal; also called 5F12 Hybridoma
B2: antibody designated 3P10 (antibody, V domains shown)
VH: QIQLVQSGPELKKPGETVKISCKASGYTFTDYGVIWVKQAPGKALKWMGWINTYTGEPTYADDLKGRFAFSLETSASSASLQINNLKNEDTATYFCARRYGPEDIDYWGQGTTLTVSS
VL: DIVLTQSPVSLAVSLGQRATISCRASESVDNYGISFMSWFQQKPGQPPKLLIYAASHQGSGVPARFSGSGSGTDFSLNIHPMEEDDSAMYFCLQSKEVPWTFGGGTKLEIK
notes: mouse hybridoma monoclonal; also called 3P10 Hybridoma; m3P10
B3: humanized anti-GFRAL antibody HC-344e/LC-344h (antibody, IgG1, V domains shown)
VH: QVQLVQSGAEVKKPGSSVKVSCKASGYTFTDYGVIWVRQAPGQGLEWMGWINTYTGEPTYADDLKGRVTFTADESTSTAYMELSSLRSEDTAVYYCARRYGPEDIDYWGQGTTVTVSS
VL: DVVLTQSPLSLPVTLGQPASISCRASESVDNYGISFMSWFQQRPGQSPRLLIYAASHQGSGVPDRFSGSGSGTDFTLKISRVEAEDVGVYFCLQSKEVPWTFGGGTKVEIK
notes: humanized 3P10; also called h3P10
B4: humanized anti-GFRAL antibody HC-344a/LC-344c (antibody, IgG1, V domains shown)
VH: B3 VH with F70I
VL: B3 VL with V2I
notes: humanized 3P10
B5: humanized anti-GFRAL antibody HC-344h/LC-344c (antibody, V domains shown)
VH: B3 VH with V2I, E46K
VL: B3 VL with V2I
notes: humanized 3P10
B6: humanized anti-GFRAL antibody HC-344h/LC-344h (antibody, IgG1, V domains shown)
VH: B3 VH with V2I, E46K
VL: B3 VL
notes: humanized 3P10
B7: humanized anti-GFRAL antibody HC-344a/LC-344h (antibody, IgG1, V domains shown)
VH: B3 VH with F70I
VL: B3 VL
notes: humanized 3P10
B8: humanized anti-GFRAL antibody HC-375d/LC-375c (antibody, IgG1, V domains shown)
VH: QVQLVQSGAEVKKPGSSVKVSCKASGYTFTDYYINWVRQAPGQGLEWIGRIYPGNGNTYHNEKFKGRATLTADKSTSTAYMELSSLRSEDTAVYYCAREGLYYDYDRYFDYWGQGTLVTVSS
VL: DIQMTQSPSSLSASVGDRVTITCRASESVDTYGNSFMHWYQQKPGKAPKLLIYLASNLESGVPSRFSGSGSGTDFTLTISSLQPEDFATYYCHQNNEDPPAFGGGTKVEIK
notes: humanized 5F12
B9: humanized anti-GFRAL antibody HC-375d/LC-375j (antibody, IgG1, V domains shown)
VH: B8 VH
VL: DIVLTQSPLSLPVTLGQPASISCRASESVDTYGNSFMHWYQQRPGQSPRLLIYLASNLESGVPDRFSGSGSRTDFTLKISRVEAEDVGVYYCHQNNEDPPAFGGGTKVEIK
notes: humanized 5F12
B10: humanized anti-GFRAL antibody HC-375e/LC-375j (antibody, IgG1, V domains shown)
VH: B8 VH with I48M, K74E
VL: B9 VL
notes: humanized 5F12
B11: humanized anti-GFRAL antibody HC-375h/LC-375j (antibody, IgG1, V domains shown)
VH: B8 VH with S16A, G44R, G49A, A72R, T76A
VL: B9 VL
notes: humanized 5F12
B12: humanized anti-GFRAL antibody HC-375d/LC-375i (antibody, IgG1, V domains shown)
VH: B8 VH
VL: B9 VL with I2V, Y40F, R72G
notes: humanized 5F12
B13: humanized anti-GFRAL antibody HC-375e/LC-375c (antibody, IgG1, V domains shown)
VH: B8 VH with I48M, K74E
VL: B8 VL
notes: humanized 5F12

Target: T1, human GFRAL expressed on cells
Assay: cell-based or functional assay

Q: How did the “IC50, ELK1-luciferase reporter (hGFRAL/hRET)” value (from here on “IC50 … (hGFRAL/hRET)”) turn out when B1 was run?
A: 0.834 nM

Q: With B2 as the binder, how does the “IC50 … (hGFRAL/hRET)” value read?
A: 4.09 nM

Target: T2, mouse GFRAL expressed on cells
Assay: cell-based or functional assay

Q: B1 was tested. Which “IC50, ELK1-luciferase reporter (mGFRAL/mRET)” value did it give?
A: 6.28 nM

Q: Which “IC50, ELK1-luciferase reporter (mGFRAL/mRET)” value does the source give for B2 here?
A: 1.03 nM

Target: T1, human GFRAL expressed on cells
Assay: cell-based or functional assay
Remark: another data set of the same source

Q: Which “IC50, ERK phosphorylation in U2OS hGFRAL/hRET cells” value (“IC50 … in U2OS hGFRAL/hRET cells” for short) does the source give for B1 here?
A: 0.06 nM

Q: How did the “IC50 … in U2OS hGFRAL/hRET cells” value turn out when B2 was run?
A: 0.08 nM

Target: T1, human GFRAL expressed on cells
Assay: cell-based or functional assay
Remark: another data set of the same source

Q: With B2 as the binder, how does the “IC50 … (hGFRAL/hRET)” value read?
A: 4.02 nM

Q: B3 was tested. Which “IC50 … (hGFRAL/hRET)” value did it give?
A: 6.95 nM

Q: For B4, which “IC50 … (hGFRAL/hRET)” value is on record?
A: 7.26 nM

Q: How did the “IC50 … (hGFRAL/hRET)” value turn out when B5 was run?
A: 29.4 nM

Q: How did the “IC50 … (hGFRAL/hRET)” value turn out when B6 was run?
A: 5.7 nM

Q: How did the “IC50 … (hGFRAL/hRET)” value turn out when B7 was run?
A: 4.63 nM

Target: T1, human GFRAL expressed on cells
Assay: cell-based or functional assay
Remark: another data set of the same source

Q: Which “IC50 … (hGFRAL/hRET)” value does the source give for B1 here?
A: 5.4 nM

Q: B8 was tested. Which “IC50 … (hGFRAL/hRET)” value did it give?
A: 3.28 nM

Q: Which “IC50 … (hGFRAL/hRET)” value does the source give for B9 here?
A: 3.11 nM

Q: For B10, which “IC50 … (hGFRAL/hRET)” value is on record?
A: 4.01 nM

Q: Which “IC50 … (hGFRAL/hRET)” value does the source give for B11 here?
A: 7.29 nM

Q: For B12, which “IC50 … (hGFRAL/hRET)” value is on record?
A: 2.75 nM

Q: Which “IC50 … (hGFRAL/hRET)” value does the source give for B13 here?
A: 2.2 nM

Target: T1, human GFRAL expressed on cells
Assay: cell-based or functional assay
Remark: another data set of the same source

Q: With B2 as the binder, how does the “IC50 … in U2OS hGFRAL/hRET cells” value read?
A: 5.46 nM

Q: With B3 as the binder, how does the “IC50 … in U2OS hGFRAL/hRET cells” value read?
A: 3.3 nM

Q: With B4 as the binder, how does the “IC50 … in U2OS hGFRAL/hRET cells” value read?
A: 5.13 nM

Q: B5 was tested. Which “IC50 … in U2OS hGFRAL/hRET cells” value did it give?
A: 15.1 nM

Q: B6 was tested. Which “IC50 … in U2OS hGFRAL/hRET cells” value did it give?
A: 2.18 nM

Q: How did the “IC50 … in U2OS hGFRAL/hRET cells” value turn out when B7 was run?
A: 5.02 nM

Target: T3, GFRα1
Assay: SPR, GFRα1 on chip surface (FIGS. 13A and 13B)

Q: Does B3 bind?
A: no binding

Target: T4, human GFRAL (analyte in Biacore assays)
Assay: Biacore SPR, antibody captured, GFRAL injected

Q: For B1, which Kd is on record?
A: < 0.1 nM

Q: And the koff?
A: ~1e-05 s⁻¹

Q: Which results are given for B2?
A: Kd: < 0.1 nM; koff: ~1e-05 s⁻¹

Target: T5, mouse GFRAL (analyte in Biacore assays)
Assay: Biacore SPR, antibody captured, GFRAL injected

Q: What does the source list for B1?
A: Kd: 2.2 nM; koff: 0.0009 s⁻¹

Q: What does the source list for B2?
A: Kd: < 0.1 nM; koff: ~1e-05 s⁻¹

Target: T4, human GFRAL (analyte in Biacore assays)
Assay: Biacore SPR, antibody captured, human GFRAL injected
Description: Exemplary humanized anti-GFRAL antibodies identified in Example 6 were assayed for their binding affinity to human GFRAL. Binding affinity measurements were made in Biacore based assays. For example, equilibrium dissociation constant (KD) measurements were carried out with purified antibodies to evaluate their binding to human GFRAL. Using methods described in Example II, anti-mouse Fc antibody (Sigma-Aldrich, St. Louis, Mo.) was immobilized on all four flow cells of a CM5 chip using amine coupling reagents (GE Healthcare LifeSciences, Piscataway, N.J.). Purified humanized anti-GFRAL antibodies were captured (˜100 RUs) on flow cells 2, 3 and 4 using flow cell 1 as a reference. This was followed by injection of human GFRAL in PBS-P buffer) at a flow rate of 70 μL/min and the binding kinetics were evaluated at 25° C.

Q: With B1 as the binder, how does the Kd read?
A: 0.038 nM

Q: For B8, which Kd is on record?
A: 0.075 nM

Q: Which Kd does the source give for B9 here?
A: 0.046 nM

Q: B10 was tested. Which Kd did it give?
A: 0.048 nM

Q: How did the Kd turn out when B11 was run?
A: 0.06 nM

Q: How did the Kd turn out when B12 was run?
A: 0.062 nM

Q: With B13 as the binder, how does the Kd read?
A: 0.092 nM

Q: With B2 as the binder, how does the Kd read?
A: < 0.01 nM

Q: B3 was tested. Which Kd did it give?
A: < 0.01 nM

Q: Which Kd does the source give for B4 here?
A: 0.012 nM

Q: How did the Kd turn out when B5 was run?
A: < 0.01 nM

Q: B6 was tested. Which Kd did it give?
A: < 0.01 nM

Q: B7 was tested. Which Kd did it give?
A: < 0.01 nM
